{
  "source": "patent US8173600",
  "about": "(CHIESI FARMACEUTICI S P A, dated 2012)",
  "binders": {"B1": {"name": "2-Quinolinylcarbonyl-L-Valinyl-L-Aspartyl (methyl ester)-L-Valinyl-L-Alanyl-L-Aspartyl (methyl ester) 2,6-difluorophenyl ester (peptide)", "peptide": "Quinaldoyl-V[Asp(OMe)]VA[Asp(OMe)]-{2,6‑difluorophenyl ester}", "SMILES": "COC(=O)C[C@H](NC(=O)[C@@H](NC(=O)c1ccc2ccccc2n1)C(C)C)C(=O)N[C@H](C(=O)N[C@@H](C)C(=O)N[C@@H](CC(=O)OC)C(=O)Oc1c(F)cccc1F)C(C)C"}},
  "biological_target": "T1, human recombinant caspase-2 (human, UniProt P42575 170-452, limits assumed)",
  "T1 sequence (looked up)": "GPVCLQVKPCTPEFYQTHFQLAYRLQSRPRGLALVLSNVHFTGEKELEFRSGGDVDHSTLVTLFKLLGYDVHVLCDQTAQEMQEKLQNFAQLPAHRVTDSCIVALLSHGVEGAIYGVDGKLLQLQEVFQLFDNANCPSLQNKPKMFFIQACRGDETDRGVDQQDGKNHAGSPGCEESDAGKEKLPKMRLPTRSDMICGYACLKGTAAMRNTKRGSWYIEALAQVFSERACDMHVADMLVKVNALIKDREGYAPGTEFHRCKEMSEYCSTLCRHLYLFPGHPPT",
  "experiment": "cell-based or functional assay",
  "note": "Numbered stars: 1 amine (or outer) side, 2 acyl side, 3 side chain; on linkers, the order of the positions; unused ones are H or OH. Square brackets hold non-standard residues; d marks the D form. * marks the point of attachment. 2,6‑difluorophenyl ester = C-terminal 2,6-difluorophenyl ester (dfp), Fc1cccc(F)c1O*; Asp(OMe) = aspartyl methyl ester, COC(=O)C[C@H](N[*:1])C(=O)[*:2]; Quinaldoyl = O=C(c1ccc2ccccc2n1)*",
  "data": [
    {"binder": "B1", "values": [
      {"measurement": "IC50 (in vitro inhibition of human recombinant caspase-2)", "value": 80, "unit": "nM"}
    ]}
  ]
}
